The record followed here is PMC11811199 (EMBO Reports, 2024).

The target of this assay is T1, DYRK4-His (UniProt Q9NR20 1-520).
T1 construct: also called recombinant DYRK4; pET30a-DYRK4-his; not shown: His, C-terminal, kept
T1 sequence (looked up): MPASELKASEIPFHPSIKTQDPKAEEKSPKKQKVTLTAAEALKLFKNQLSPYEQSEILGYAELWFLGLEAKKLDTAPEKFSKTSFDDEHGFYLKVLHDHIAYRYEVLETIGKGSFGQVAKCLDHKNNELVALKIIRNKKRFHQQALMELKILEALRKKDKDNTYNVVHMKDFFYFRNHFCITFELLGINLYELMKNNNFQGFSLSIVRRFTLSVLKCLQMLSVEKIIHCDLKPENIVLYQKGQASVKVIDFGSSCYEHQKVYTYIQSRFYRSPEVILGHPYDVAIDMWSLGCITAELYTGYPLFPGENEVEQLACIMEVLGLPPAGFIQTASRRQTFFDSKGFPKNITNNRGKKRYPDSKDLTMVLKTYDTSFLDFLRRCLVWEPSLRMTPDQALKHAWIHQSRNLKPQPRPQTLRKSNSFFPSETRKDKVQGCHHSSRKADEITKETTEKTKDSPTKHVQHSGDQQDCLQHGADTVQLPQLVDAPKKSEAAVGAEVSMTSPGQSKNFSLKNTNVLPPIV
The assay can be described thus: pull-down. Particulars: both partners purified.

B1: GST-IRF3 (natural protein, UniProt Q14653 1-427, looked up)
chain: MGTPKPRILPWLVSQLDLGQLEGVAWVNKSRTRFRIPWKHGLRQDAQQEDFGIFQAWAEATGAYVPGRDKPDLPTWKRNFRSALNRKEGLRLAEDRSKDPHDPHKIYEFVNSGVGDFSQPDTSPDTNGGGSTSDTQEDILDELLGNMVLAPLPDPGPPSLAVAPEPCPQPLRSPSLDNPTPFPNLGPSENPLKRLLVPGEEWEFEVTAFYRGRQVFQQTISCPEGLRLVGSEVGDRTLPGWPVTLPDPGMSLTDRGVMSYVRHVLSCLGGGLALWRAGQWLWAQRLGHCHTYWAVSEELLPNSGHGPDGEVPKDKEGGVFDLGPFIVDLITFTEGSGRSPRYALWFCVGESWPQDQPWTKRLVMVKVVPTCLRALVEMARVGGASSLENTVDLHISNSHPLSLTSDQYKAYLQDLVEGMDFQGPGES
notes: also called pGEX6P-1-GST-IRF3; not shown: GST, N-terminal, kept
Take B1: the binding result is reported as “binds”.
